Assay results as given in patent US20230303698A1 (published 2023).

B1: PR007164 (bispecific antibody)
chain 1: EVQLVESGGGLVQPGGSLRLSCAASGFTFSSYWMSWVRQAPGKGLEWVANIKQEGSEKYYVDSVKGRFTISRDNAKNSLYLQMNSLRAEDTAVYYCARDRAVAGAFDIWGQGTMVTVSSASTKGPSVFPLAPSSKSTSGGTAALGCLVKDYFPEPVTVSWNSGALTSGVHTFPAVLQSSGLYSLSSVVTVPSSSLGTQTYICNVNHKPSNTKVDKKVEPKSC
chain 2: not shown
B2: PR004270 (bispecific antibody)
chain 1: B1 chain 1
chain 2: not shown
B3: PR003564 (bispecific antibody)
light: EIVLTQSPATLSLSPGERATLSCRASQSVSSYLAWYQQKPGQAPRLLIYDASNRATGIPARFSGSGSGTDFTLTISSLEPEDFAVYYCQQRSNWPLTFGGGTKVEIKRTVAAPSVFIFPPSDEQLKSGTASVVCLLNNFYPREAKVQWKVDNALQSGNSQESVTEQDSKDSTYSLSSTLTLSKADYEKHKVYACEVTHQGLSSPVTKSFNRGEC
heavy: EVQLLESGGGLVQPGGSLRLSCAASGFTFSSFVMSWVRQAPGKGLEWVSTISGSGRSTYYADSVKGRFTISRDNSKNTLHLQMNSLRAEDTAVYYCAKDAAAAGTKFDYWGQGTLVTVSSASTKGPSVFPLAPSSKSTSGGTAALGCLVKDYFPEPVTVSWNSGALTSGVHTFPAVLQSSGLYSLSSVVTVPSSSLGTQTYICNVNHKPSNTKVDKKVEPKSCDKTHTCPPCPAPEAAGGPSVFLFPPKPKDTLMISRTPEVTCVVVDVSHEDPEVKFNWYVDGVEVHNAKTKPREEQYNSTYRVVSVLTVLHQDWLNGKEYKCKVSNKALGAPIEKTISKAKGQPREPQVYTLPPSREEMTKNQVSLTCLVKGFYPSDIAVEWESNGQPENNYKTTPPVLDSDGSFFLYSKLTVDKSRWQQGNVFSCSVMHEALHNHYTQKSLSLSPGEPKSSDKTHTPPPPPRTEVQLLESGGGLVQPGGSLRLSCAASGFIFSNFAMTWVRQPPEKGLKWVSSINGSGFNTYYTDSVKGRFTISRDNSRNTLYLQMNRLTAEDTAVYFCAKEGSSETDDHYYNVDVWGQGTTVTVSS
B4: PR007163 (bispecific antibody)
light: DIQMTQSPSTLSASVGDRVTVTCRASQSIYIWLAWYQQKPGKAPNLLIYKASSLETGVPSRFSGSGSGTEFTLTISSLQPDDFATYYCQQYYGSSRTFGQGTKVEIKRTVAAPSVFIFPPSDEQLKSGTASVVCLLNNFYPREAKVQWKVDNALQSGNSQESVTEQDSKDSTYSLSSTLTLSKADYEKHKVYACEVTHQGLSSPVTKSFNRGEC
heavy: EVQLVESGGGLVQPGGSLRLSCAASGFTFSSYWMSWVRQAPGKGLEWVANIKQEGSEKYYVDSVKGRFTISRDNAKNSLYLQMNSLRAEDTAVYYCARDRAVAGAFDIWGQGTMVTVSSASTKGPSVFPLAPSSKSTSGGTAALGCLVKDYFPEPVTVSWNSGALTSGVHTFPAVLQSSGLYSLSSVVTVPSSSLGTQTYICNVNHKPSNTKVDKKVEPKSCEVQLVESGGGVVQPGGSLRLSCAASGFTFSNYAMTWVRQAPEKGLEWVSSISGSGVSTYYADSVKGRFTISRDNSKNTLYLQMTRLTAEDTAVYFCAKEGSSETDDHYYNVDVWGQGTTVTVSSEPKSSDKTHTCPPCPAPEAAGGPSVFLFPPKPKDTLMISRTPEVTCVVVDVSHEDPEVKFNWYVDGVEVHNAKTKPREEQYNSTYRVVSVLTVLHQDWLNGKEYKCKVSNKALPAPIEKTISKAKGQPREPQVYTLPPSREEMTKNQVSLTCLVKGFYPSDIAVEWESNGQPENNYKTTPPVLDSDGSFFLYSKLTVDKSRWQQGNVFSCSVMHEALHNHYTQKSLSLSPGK
B5: PR003550 (bispecific antibody)
light: B4 light
heavy: EVQLVESGGGLVQPGGSLRLSCAASGFTFSSYWMSWVRQAPGKGLEWVANIKQEGSEKYYVDSVKGRFTISRDNAKNSLYLQMNSLRAEDTAVYYCARDRAVAGAFDIWGQGTMVTVSSASTKGPSVFPLAPSSKSTSGGTAALGCLVKDYFPEPVTVSWNSGALTSGVHTFPAVLQSSGLYSLSSVVTVPSSSLGTQTYICNVNHKPSNTKVDKKVEPKSCDKTHTCPPCPAPEAAGGPSVFLFPPKPKDTLMISRTPEVTCVVVDVSHEDPEVKFNWYVDGVEVHNAKTKPREEQYNSTYRVVSVLTVLHQDWLNGKEYKCKVSNKALGAPIEKTISKAKGQPREPQVYTLPPSREEMTKNQVSLTCLVKGFYPSDIAVEWESNGQPENNYKTTPPVLDSDGSFFLYSKLTVDKSRWQQGNVFSCSVMHEALHNHYTQKSLSLSPGEPKSSDKTHTPPPPPRTEVQLVESGGGVVQPGGSLRLSCAASGFTFSNYAMTWVRQAPEKGLEWVSSISGSGVSTYYADSVKGRFTISRDNSKNTLYLQMTRLTAEDTAVYFCAKEGSSETDDHYYNVDVWGQGTTVTVSS

What was measured:
[1] = target: human PD-L1 (human, UniProt Q9NZQ7 19-290); test: FACS
Sequence of human PD-L1 (Q9NZQ7 19-290): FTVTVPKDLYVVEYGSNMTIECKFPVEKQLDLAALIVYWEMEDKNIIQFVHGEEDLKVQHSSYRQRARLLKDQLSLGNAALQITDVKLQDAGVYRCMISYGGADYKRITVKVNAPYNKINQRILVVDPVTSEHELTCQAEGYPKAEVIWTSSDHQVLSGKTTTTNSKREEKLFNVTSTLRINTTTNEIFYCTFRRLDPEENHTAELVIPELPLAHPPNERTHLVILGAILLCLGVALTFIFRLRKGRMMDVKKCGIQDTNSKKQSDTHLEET

[2] = target: human 4-1BB (human, UniProt Q07011 24-255); test: FACS

Row | Binder | EC50 [1] [nM] | EC50 [2] [nM]
1 | B1 | 1.93 | 
2 | B2 | 0.963 | 
3 | B3 |  | 2.78
4 | B4 | 2.26 | 
5 | B5 | 1.11 | 
